Reference: the Human Domainome abundance scans (Beltran et al. 2025)
± gives the uncertainty stated by the source.

B1: POU domain, class 2, transcription factor 3, residues 186 to 260; numbered along this chain, Q9UKI9 (parent)
chain: SDLEELEKFAKTFKQRRIKLGFTQGDVGLAMGKLYGNDFSQTTISRFEALNLSFKNMCKLKPLLEKWLNDAESSP

Variants of: B1
Assay: abundance fitness (aPCA) (normalised: wild type 0, dead -1); higher = more abundant; growth selection in yeast, the domain comes from the species named
Conditions: Homo sapiens

Variant	abundance fitness
N51Q	-0.011 ± 0.056
N51Y	-0.188 ± 0.1
N51T	0.007 ± 0.05
N51E	-0.078 ± 0.048
N51V	-0.1 ± 0.039
N51K	0.069 ± 0.051
N51D	-0.008 ± 0.089
N51G	-0.01 ± 0.031
N51C	-0.076 ± 0.058
N51S	0.043 ± 0.034
N51W	-0.282 ± 0.044
N51M	-0.022 ± 0.057
N51P	-0.844 ± 0.2
N51H	0.107 ± 0.098
N51L	-0.035 ± 0.044
N51I	-0.151 ± 0.068
Q41V	-0.081 ± 0.026
Q41L	-0.117 ± 0.026
Q41G	0.009 ± 0.023
Q41Y	-0.07 ± 0.09
Q41H	-0.001 ± 0.089
Q41P	-0.03 ± 0.035
Q41C	-0.062 ± 0.053
Q41M	-0.055 ± 0.031

Variant	abundance fitness
Q41R	-0.001 ± 0.022
Q41S	-0.002 ± 0.031
Q41K	0.051 ± 0.037
Q41D	-0.066 ± 0.063
Q41A	0.025 ± 0.027
Q41F	-0.037 ± 0.06
Q41T	-0.04 ± 0.033
Q41W	-0.095 ± 0.027
Q41E	0.026 ± 0.027
Q41I	-0.072 ± 0.065
G28Q	-0.59 ± 0.47
G28R	-0.191 ± 0.17
G28T	0.087 ± 0.46
G28A	-0.055 ± 0.11
G28C	-0.367 ± 0.22
L29S	-0.003 ± 0.025
L29H	-0.062 ± 0.042
L29T	-0.083 ± 0.031
L29M	0.05 ± 0.031
L29I	0.022 ± 0.042
L29W	-0.121 ± 0.031
L29R	0.019 ± 0.022
L29P	-0.47 ± 0.039
L29V	-0.007 ± 0.024

Variant	abundance fitness
L29K	0.042 ± 0.029
L29F	-0.099 ± 0.045
L29Y	-0.06 ± 0.041
L29C	0.026 ± 0.036
L29A	0.024 ± 0.027
L29E	0.02 ± 0.029
L29D	-0.045 ± 0.039
L29G	-0.042 ± 0.022
L29Q	0.007 ± 0.029
Y35F	-0.182 ± 0.23
Y35S	0.01 ± 0.15
Y35D	-0.016 ± 0.15
D26R	-0.344 ± 0.2
D26V	-0.227 ± 0.49
D26G	-0.125 ± 0.11
N37R	0.027 ± 0.023
N37C	-0.027 ± 0.042
N37W	-0.07 ± 0.027
N37V	-0.027 ± 0.024
N37T	-0.013 ± 0.033
N37H	0.04 ± 0.044
N37E	0.003 ± 0.027
N37D	0.023 ± 0.039
N37M	-0.025 ± 0.031

Variant	abundance fitness
N37I	-0.039 ± 0.057
N37A	0.02 ± 0.027
N37F	-0.139 ± 0.05
N37Y	-0.157 ± 0.047
N37G	0.024 ± 0.021
R46Q	0.014 ± 0.049
R46V	-0.542 ± 0.048
R46D	0.009 ± 0.058
R46E	0.035 ± 0.036
R46L	-0.05 ± 0.035
R46K	0.052 ± 0.045
R46P	-0.986 ± 0.23
R46W	-0.428 ± 0.043
R46M	-0.001 ± 0.044
R46G	-0.009 ± 0.024
R46T	-0.181 ± 0.047
R46A	0.015 ± 0.037
R46H	-0.038 ± 0.053
R46N	0.011 ± 0.056
R46Y	-0.097 ± 0.096
R46I	-0.745 ± 0.26
R46S	-0.008 ± 0.035
D38N	0.037 ± 0.23
N56K	-0.024 ± 0.045

Variant	abundance fitness
N56R	0.009 ± 0.028
N56L	-0.008 ± 0.033
N56P	-0.206 ± 0.054
N56E	-0.001 ± 0.039
N56S	-0.035 ± 0.036
N56W	0.014 ± 0.038
N56G	-0.05 ± 0.029
N56D	0.008 ± 0.051
N56M	0.045 ± 0.047
N56F	-0.058 ± 0.065
N56C	-0.016 ± 0.057
N56I	-0.034 ± 0.082
N56V	-0.082 ± 0.033
N56Q	0.046 ± 0.059
N56H	0.014 ± 0.057
N56A	0.018 ± 0.035
N56Y	-0.022 ± 0.052
N56T	0.093 ± 0.048
C58K	-0.058 ± 0.068
C58P	-0.474 ± 0.083
C58V	-0.019 ± 0.033
C58D	-0.04 ± 0.051
C58F	0.005 ± 0.06
C58G	-0.031 ± 0.029

Variant	abundance fitness
C58L	-0.02 ± 0.033
C58M	-0.005 ± 0.045
C58R	0 ± 0.028
C58S	0.026 ± 0.037
C58E	-0.039 ± 0.046
C58T	-0.09 ± 0.054
C58I	0.01 ± 0.055
C58N	-0.005 ± 0.067
C58A	0.027 ± 0.036
C58W	0.032 ± 0.035
C58H	-0.052 ± 0.13
A30G	-0.288 ± 0.27
S53H	-0.205 ± 0.094
S53E	-0.061 ± 0.041
S53K	-0.091 ± 0.045
S53D	-0.04 ± 0.049
S53G	0.015 ± 0.026
S53V	-0.598 ± 0.043
S53M	-0.608 ± 0.081
S53R	-0.093 ± 0.031
S53F	-0.66 ± 0.24
S53L	-0.768 ± 0.066
S53P	-0.032 ± 0.052
S53T	0.002 ± 0.048

Variant	abundance fitness
S53Q	-0.077 ± 0.055
S53W	-0.958 ± 0.099
S53I	-0.556 ± 0.18
S53N	0.03 ± 0.062
G25C	0.105 ± 0.3
G25V	-0.161 ± 0.27
G25D	-0.436 ± 0.28
K33G	0.141 ± 0.19
K33R	0.129 ± 0.42
K33W	-0.372 ± 0.22
E48C	-0.871 ± 0.16
E48S	-0.912 ± 0.086
E48D	-1.11 ± 0.39
E48W	-1.17 ± 0.38
E48H	-1.19 ± 0.25
E48T	-1.25 ± 0.21
E48P	-0.994 ± 0.12
E48G	-1.04 ± 0.14
E48N	-0.871 ± 0.18
E48M	-0.798 ± 0.1
E48I	-1.02 ± 0.18
E48V	-1.04 ± 0.13
E48F	-0.708 ± 0.12
